In patent US8323971B2, “Differentiation of pluripotent cells into primary germ layer progenitors” (Cambridge Enterprise Limited, priority 2006, dated 2012):

Legend:
Assay type in all cases: cell-based, human
[1] = system: hESC derived EBs; test: Real time qPCR / RT-PCR of neuroectoderm and pluripotency markers in EBs; conditions: expressing EBs compared to wildtype
Method: Four independent batches of WT and Lefty EBs were used for this analysis.
Five independent batches of DMSO- and SB431542-treated EBs were used for this analysis.
(§1) Lefty or Cerb-S expressing hESCs (as well as wildtype H9 and hSF-6 hESCs) were grown in 6 cm dishes (Corning), on mouse feeders. When confluent, hESCs were passaged using collagenase 1 mg/ml, as previously described (Schatten et al., 2005) and cultured in non-adherent conditions in CDM supplemented with either SU5402 (Calbiochem; 10 μM), SB431542 (Tocris; 20 μM), FGF-2 (R&D Systems; 12 ng/ml) or Noggin 200 ng/ml.
For some RT-PCR experiments, 50-100 ng of RNA were used for each RT-PCR reaction, using the OneStep RT-PCR kit according to manufacturer instructions. For real-time PCR, 1 μg RNA was reverse-transcribed using the Qiagen QuantiTect Reverse Transcription kit. 1/20-1/40 of each cDNA reaction was used for each real-time PCR reaction using the QuantiTect SYBR Green PCR Kit (Qiagen) according to manufacturer instructions. Relative quantification of gene expression was done by normalising the detected levels of gene of interest mRNA to those of the house-keeping GAPDH gene. All primers were purchased from Qiagen, with the exception of Xenopus Cerb-S: Forward 5′-[…]-3′ (SEQ ID NO: 1); Reverse 5′-ATGGTGCAGGGTAG TAGATG-3′ (SEQ ID NO: 2). Mouse Lefty2: Forward 5^r-[…]-3′ (SEQ ID NO: 3); Reverse 5′-[…]-3′ (SEQ ID NO: 4).

[2] = system: hESC derived EBs; test: Incidence of beating structures in EBs plated in MEF media; conditions: over-expressing EBs in MEF medium containing FBS
Method: Lefty, Cerb-S expressing and wildtype EBs were plated in MEF media, and beating EBs were counted. Lefty expressing EBs generated fewer beating structures as compared to wildtype EBs (NS=not significant) (Scale bar=[…]).
In some experiments, hESCs were incubated in DMEM supplemented with 10% FCS and 1 mM glutamine (MEF media) to promote mesoderm formation. EBs were then grown for 12-16 days at 37° C. at […] before being harvested for histological or molecular marker analysis.
To evaluate further the differentiation potential of Lefty and Cerb-S overexpressing hESCs, EBs were cultured in MEF medium containing fetal bovine serum (FBS), which promotes the formation of mesoderm lineages including cardiomyocytes, as recognised by rhythmically beating structures. […] Nodal expressing EBs grown in these conditions were not seen to generate such beating structures, and instead maintained expression of the pluripotency marker Oct-4 (FIG. 7).

[3] = system: hESC derived EBs; test: Quantitation of rosette structures in EBs; conditions: expressing EBs grown in CDM
Method: as §1
To investigate the development of EBs derived from Lefty or Cerb-S overexpressing hESCs, we grew the cells as EBs in suspension culture using CDM medium. As previously observed (Vallier et al., 2004a), wildtype control EBs grown in CDM developed almost exclusively as simple spheres with no apparent tissue organisation. […] Hematoxylin/Eosin staining of sectioned EBs confirmed that these folded structures found in Lefty overexpressing EBs were neuroectoderm-like, with internal epithelial rosettes. Lefty and Cerb-S expressing EBs contained respectively 5 times (Pb 0.05) and 2 times (not significant, N.S.) more epithelial rosettes than control EBs (FIG. 5).

[4] = system: hESCs; test: Quantitation of β-tubulin III positive cells in monolayer differentiation; conditions: expressing hESCs differentiated in CDM, monolayer, 24 days
Method: In some experiments, Wildtype and Lefty expressing hESCs were grown on fibronectin in FGF (12 ng/ml)/Activin (20 ng/ml) as a monolayer in the absence of a feeder layer (Vallier et al., 2005). When cells were 70-80% confluent medium was changed to either CDM only, CDM/FGF (12 ng/ml), CDM/Noggin 200 ng/ml, CDM/SU5402 and differentiated for 24 days.
To quantify the neurogenic potential of Lefty expressing hESCs, we cultured Lefty expressing hESCs in feeder-free conditions as a monolayer in CDM supplemented with Activin and FGF as described previously (Vallier et al., 2005). When cells reached 70-80% confluency, medium was changed to CDM only, CDM plus FGF (12 ng/ml) (CDM/FGF), CDM plus the BMP inhibitor Noggin (200 ng/ml) ([…]) (CDM/SU5402), and cells were cultured in these conditions for 24 days
The incidence of neural differentiation was determined by counting the number of β-tubulin III positive cells in random fields.

B1: Lefty: mouse Lefty2, Nodal inhibitor stably over-expressed in hESCs (protein, UniProt P57785 78-368, looked up)
Left-right determination …: FSQNFREVAGRFLMSETSTHLLVFGMEQRLPPNSELVQAVLRLFQEPVPRTALRRFERLSPHSARARVTIEWLRVREDGSNRTALIDSRLVSIHESGWKAFDVTEAVNFWQQLSRPRQPLLLQVSVQREHLGPGTWSAHKLVRFAAQGTPDGKGQGEPQLELHTLDLKDYGAQGNCDPEVPVTEGTRCCRQEMYLDLQGMKWAENWILEPPGFLTYECVGSCLQLPESLTIGWPFLGPRQCVASEMTSLPMIVSVKEGGRTRPQVVSLPNMRVQTCSCASDGALIPRGIDL
- Nestin, Sox3 and Sox1 expression (real-time qPCR) [1]: increased average levels
- decrease of incidence of rhythmically contracting structures compared to wildtype EBs [2]: ~79%
- epithelial rosettes relative to control EBs [3]: 5 times
- β-tubulin III positive cells/field [4]: 69±13 cells/field
